{"source": "patent US20230201365A1", "about": "(BRIGHT PEAK THERAPEUTICS, published 2023)", "binders": {"B1": {"name": "biosimilar Rituximab (unconjugated parent anti-CD20 antibody) (antibody, human IgG1, kappa)", "heavy": "not shown", "light": "QIVLSQSPAILSASPGEKVTMTCRASSSVSYIHWFQQKPGSSPKPWIYATSNLASGVPVRFSGSGSGTSYSLTISRVEAEDAATYYCQQWTSNPPTFGGGTKLEIKRTVAAPSVFIFPPSDEQLKSGTASVVCLLNNFYPREAKVQWKVDNALQSGNSQESVTEQDSKDSTYSLSSTLTLSKADYEKHKVYACEVTHQGLSSPVTKSFNRGEC", "notes": "The antibody tested is a biosimilar of rituximab; also called aCD20 AB; parent antibody"}}, "key": {"[1]": {"molecular_target": "T1, Recombinant Human Fc gamma RIIA/CD32a (H167) Protein (human, UniProt P12318 36-218)", "T1 construct": "Bought recombinant protein; H167 variant as printed; also called hu FcγRIIa (CD32a); human CD32a", "T1 sequence (looked up)": "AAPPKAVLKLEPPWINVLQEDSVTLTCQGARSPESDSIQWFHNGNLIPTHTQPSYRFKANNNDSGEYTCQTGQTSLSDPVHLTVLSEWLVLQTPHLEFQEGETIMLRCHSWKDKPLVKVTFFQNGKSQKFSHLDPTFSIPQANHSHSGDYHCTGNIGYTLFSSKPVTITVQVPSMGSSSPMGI", "test": "ELISA, antibody coated at 2.5 ug/ml, soluble Fc gamma receptor titrated, HRP detection; mean EC50", "description": "(§1) To analyze Fc Receptor gamma binding test molecules were diluted to 2.5 ug/ml in PBS and plates were coated overnight at 4° C. The next day the assay plates were washed four times with 100 ul of wash buffer: PBS+0.02% Tween 20 and blocked with PBS+1% BSA, for one hour at 37° C., with shaking at 600 RPM. The blocked plates were then washed four times with 100 ul wash buffer. Diluted FcRgamma (Reagents listed, below) was freshly diluted in wash buffer. Plates were then incubated with 25 ul of diluted Fc for two hours with shaking at 600 RPMs, then washed with 100 ul wash buffer, four times. The wells were then incubated with 25 ul of either 1:500 diluted streptavidin-Horseradish peroxidase (HRP) for detection of human FcgR or 1:500 diluted Anti-HIS tag antibody-HRP in wash buffer. The HPR detection molecules were incubated in the wells at room temperature for one hour with shaking at 600 RPMs. Plate wells were washed with 100 ul of wash buffer, four times. Plates were detected using the chromogenic HRP substrate 3,3′,5,5;-tetramethylbenzidine (TMB). Samples were read using a spectrophotometer plate reader with OD set to 450 nm. Reagents: Recombinant Mouse Fc gamma RI/CD64 Protein, CF R&D Systems #2074-FC-050; Recombinant Human Fc gamma RI/CD64 Protein, CF R&D Systems #1257-FC-050; Recombinant Mouse Fc gamma RIII/CD16 Protein, CF R&D Systems #1960-FC-050; Recombinant Human Fc gamma RIIA/CD32a (H167) Protein, CF R&D Systems #9595-CD-050; Recombinant Mouse Fc gamma R4/CD16-2 Protein, CF R&D Systems #1974-CD-050; Recombinant Human Fc gamma RIIIA/CD16a Protein, CF R&D Systems #4325-FC-050; Recombinant Human Fc gamma RIIB/CD32b Avi-tag Protein, CF R&D Systems #AVI1875-050; Recombinant Mouse Fc gamma RIIB/CD32b Protein, CF R&D Systems #1460-CD-050; His Tag Horseradish Peroxidase-conjugated Antibody, R&D Systems #MAB050H; Streptavidin-HRP, Sigma #RABHRP3-600 µL."}, "[2]": {"molecular_target": "T2, Recombinant Human Fc gamma RI/CD64 Protein (human, UniProt P12314 16-288)", "T2 construct": "Bought recombinant protein; also called hu FcγRI (CD64)", "T2 sequence (P12314 16-288 limits assumed)": "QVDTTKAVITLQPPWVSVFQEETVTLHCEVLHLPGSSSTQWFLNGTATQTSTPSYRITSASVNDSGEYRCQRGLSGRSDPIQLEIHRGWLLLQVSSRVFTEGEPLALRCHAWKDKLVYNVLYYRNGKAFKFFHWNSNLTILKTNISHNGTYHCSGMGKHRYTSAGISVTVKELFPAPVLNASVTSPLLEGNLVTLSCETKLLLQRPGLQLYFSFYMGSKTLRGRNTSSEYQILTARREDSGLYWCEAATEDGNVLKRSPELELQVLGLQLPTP", "test": "ELISA, antibody coated at 2.5 ug/ml, soluble Fc gamma receptor titrated, HRP detection; mean EC50", "description": "as §1"}, "[3]": {"molecular_target": "T3, Recombinant Mouse Fc gamma RI/CD64 Protein (mouse, UniProt P26151 25-297)", "T3 construct": "Bought recombinant protein; also called mu FcγRI (CD64); murine CD64", "T3 sequence (looked up)": "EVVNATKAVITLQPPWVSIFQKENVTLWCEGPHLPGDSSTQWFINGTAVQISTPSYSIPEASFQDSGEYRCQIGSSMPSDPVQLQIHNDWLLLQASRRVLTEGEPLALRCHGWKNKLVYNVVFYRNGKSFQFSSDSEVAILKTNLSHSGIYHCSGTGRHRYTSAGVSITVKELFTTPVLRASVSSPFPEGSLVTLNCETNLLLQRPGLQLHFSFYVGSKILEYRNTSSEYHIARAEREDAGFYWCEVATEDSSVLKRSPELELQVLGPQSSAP", "test": "ELISA, antibody coated at 2.5 ug/ml, soluble Fc gamma receptor titrated, HRP detection; mean EC50", "description": "as §1"}, "[4]": {"molecular_target": "T4, Recombinant Human Fc gamma RIIIA/CD16a Protein (human, UniProt P08637 17-208)", "T4 construct": "Bought recombinant protein; also called hu FcγRIII (CD16a); huFcgRIII", "T4 sequence (P08637 17-208 limits assumed)": "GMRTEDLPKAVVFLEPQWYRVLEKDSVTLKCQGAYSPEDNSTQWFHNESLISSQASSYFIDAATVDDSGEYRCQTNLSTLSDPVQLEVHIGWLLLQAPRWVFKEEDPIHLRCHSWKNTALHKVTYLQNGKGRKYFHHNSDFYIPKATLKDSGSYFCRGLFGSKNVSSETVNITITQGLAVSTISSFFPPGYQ", "test": "ELISA, antibody coated at 2.5 ug/ml, soluble Fc gamma receptor titrated, HRP detection; mean EC50", "description": "as §1"}, "[5]": {"molecular_target": "T5, Recombinant Human Fc gamma RIIB/CD32b Avi-tag Protein (human, UniProt P31994 46-217)", "T5 construct": "Bought recombinant protein with Avi-tag; also called hu FcγRIIb (CD32b); human CD32b", "T5 sequence (looked up)": "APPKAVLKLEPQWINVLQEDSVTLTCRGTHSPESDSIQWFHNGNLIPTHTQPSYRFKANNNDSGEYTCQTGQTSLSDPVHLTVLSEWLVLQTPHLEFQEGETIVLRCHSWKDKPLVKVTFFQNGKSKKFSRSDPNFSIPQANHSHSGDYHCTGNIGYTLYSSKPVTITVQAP", "test": "ELISA, antibody coated at 2.5 ug/ml, soluble Fc gamma receptor titrated, HRP detection; mean EC50", "description": "as §1"}, "[6]": {"molecular_target": "T6, Recombinant Mouse Fc gamma RIII/CD16 Protein (mouse, UniProt P08508 31-215)", "T6 construct": "Bought recombinant protein; also called mu FcγRIII (CD16); murine CD16", "T6 sequence (looked up)": "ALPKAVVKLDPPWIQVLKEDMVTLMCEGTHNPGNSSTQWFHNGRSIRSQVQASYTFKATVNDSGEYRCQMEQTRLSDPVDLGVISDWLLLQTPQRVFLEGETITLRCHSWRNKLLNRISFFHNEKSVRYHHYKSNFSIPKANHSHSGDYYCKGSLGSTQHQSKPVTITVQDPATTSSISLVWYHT", "test": "ELISA, antibody coated at 2.5 ug/ml, soluble Fc gamma receptor titrated, HRP detection; mean EC50", "description": "as §1"}, "[7]": {"molecular_target": "T7, recombinant biotinylated CD20 (human) (human, UniProt P11836 1-297, limits assumed, biotinylated (site not stated))", "T7 construct": "also called hu CD20; B-lymphocyte antigen CD20", "T7 sequence": "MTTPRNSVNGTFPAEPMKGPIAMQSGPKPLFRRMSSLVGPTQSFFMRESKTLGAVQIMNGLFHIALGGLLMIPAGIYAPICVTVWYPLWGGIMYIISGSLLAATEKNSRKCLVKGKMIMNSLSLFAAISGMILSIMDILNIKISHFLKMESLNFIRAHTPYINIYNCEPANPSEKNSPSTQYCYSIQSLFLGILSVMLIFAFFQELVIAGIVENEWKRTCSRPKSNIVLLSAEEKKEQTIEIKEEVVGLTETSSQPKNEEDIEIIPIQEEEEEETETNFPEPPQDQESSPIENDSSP", "test": "ELISA, antibody coated on plate, biotinylated recombinant CD20 titrated, streptavidin-HRP detection; mean EC50", "description": "(§2) The interaction of the unmodified and of conjugated anti-CD20 antibodies with CD20 were measured by ELISA assay. […] Plates were washed four times with 100 μl of PBS-0.02% Tween20. and blocked with 25 μl of PBS-0.02% Tween20-1% BSA at 37° C. with shaking at 600 RPM, for 1 h. Plates were then washed four times with 100 μl of PBS-0.02% Tween20. 25 μl of recombinant biotinylated CD20 were added in seven-fold serial dilutions starting at 18 nM down to 10 pM into PBS-0.02% Tween20-0.1% BSA and incubated at 37° C. during 2 h. Plates were then washed four times with 100 μl of PBS-0.02% Tween20. 25 ul of Streptavidin-Horseradish peroxidase (#RABHRP3, Merck, Buchs, Switzerland) diluted at 1:500 into PBS-0.02% Tween20-0.1% BSA were added to each well and incubated at room temperature for 30 min. Plates were then washed four times with 100 μl of PBS-0.02% Tween20. Fifty microliters of TMB substrate reagent (#CL07, Merck, Buchs, Switzerland) were added to each well and incubated at 37° C. during 5min After 5 min at 37° C., Horseradish peroxidase reaction is stopped by adding 50 μl/well of 0.5M H₂SO₄ stop solution. ELISA signal is then measured at 450 nm on an ENSPIRE® plate reader from Perkin Elmer (Schwerzenbach, Switzerland)."}, "[8]": {"molecular_target": "T7, recombinant biotinylated CD20 (human)", "test": "ELISA, antibody coated on the plate, biotinylated CD20 titrated, streptavidin-HRP detection, OD 450 nm", "description": "as §2"}}}
{"binder": "B1", "values": [{"measurement": "EC50", "setting": "[1]", "value": 740, "unit": "nM"}, {"measurement": "EC50", "setting": "[2]", "value": 0.23, "unit": "nM"}, {"measurement": "EC50", "setting": "[3]", "value": 35, "unit": "nM"}, {"measurement": "EC50", "setting": "[4]", "value": 185, "unit": "nM"}, {"measurement": "EC50", "setting": "[5]", "value": 880, "unit": "nM"}, {"measurement": "EC50", "setting": "[6]", "value": 133, "unit": "nM"}, {"measurement": "EC50", "setting": "[7]", "value": 0.08, "unit": "nM"}, {"measurement": "EC50 (read off the curve)", "setting": "[8]", "value": "~0.04", "unit": "nM"}]}
